From patent US11142752B2, “Pullulanase mutant” (Jiangnan University, priority 2018, dated 2021)

How the values were obtained:
[1] = test system: pullulanase of Geobacillus stearothermophilus; experiment: Inhibitory effect of cyclodextrin on pullulanase enzyme activity (DNS method, pullulan substrate); format: biochemical
Text: (§1) 2. Measurement of Enzyme Activity of the Pullulanase:
(§2) A 3,5-dinitrosalicylic acid (DNS) method is adopted. The pullulanase catalyzes the hydrolysis of pullulan to produce reducing sugar under certain conditions, 3,5-dinitrosalicylic acid and the reducing sugar are reduced under thermal conditions to produce a brown-red amino complex, the color depth is directly proportional to the amount of the reducing sugar within a certain range, and the measurement can be performed at the wavelength of 540 nm so as to calculate the enzyme activity. Enzyme activity unit definition: the amount of the enzyme that catalyzes the production of the reducing sugar equivalent to 1 μmol of glucose reducing power per minute is defined as one activity unit.
(§3) 3. Measurement of the Enzyme Activity Comprises the Following Steps:
(§4) A. preheating: putting 1 mL of a 1% pullulan solution of which the pH value is 6.0 and 0.1 mL of a buffer solution of which the pH value is 6.0 in a centrifuge tube, and performing thermal insulation for 10 min on a water bath of 40° C.;
(§5) B. reaction: adding 0.1 mL (10 U) of an enzyme solution, performing shaking and mixing uniformly, performing accurate timing for 30 min, adding 1.5 mL of DNS for stopping reaction, performing treatment in a boiling water bath for 10 min, and performing instant cooling; and
(§6) C. measurement: measuring the light absorption value under the condition of 540 nm, and calculating the activity.
(§7) Reduction of the Inhibitory Effect of Enzyme Activity Characterization:
(§8) A. preheating: putting 1 mL of the 1% pullulan solution of which the pH value is 6.0 and 0.1 mL of 10 mM cyclodextrin in the centrifuge tube, and performing thermal insulation for 10 min on the water bath of 40° C.;
(§9) B. reaction: adding 0.1 mL (10 U) of the enzyme solution, performing shaking and mixing uniformly, performing accurate timing for 30 min, adding 1.5 mL of DNS for stopping reaction, performing treatment in the boiling water bath for 10 min, and performing instant cooling; and
(§10) On the basis, the phenylalanine at the position 481 of the Geobacillus stearothermophilus, the phenylalanine at the position 478 of the [Brevibacterium] halotolerans and the phenylalanine at the position 476 of the […] are mutated, obtained mutants and the mutation effects are shown in the table below. The key amino acid site is applicable to the pullulanase from different sources.

[2] = test system: pullulanase of Bacillus halotolerans; experiment: as above; format: biochemical
Text: as §1, §2, §3, §4, §5, §6, §7, §8, §9, §10

Molecule | Reduction rate of specific enzyme activity in existence of α-CD ([1]; inhibitor α-CD) [%] | Reduction rate of specific enzyme activity in existence of β-CD ([1]; inhibitor β-CD) [%] | Reduction rate of specific enzyme activity in existence of γ-CD ([1]; inhibitor γ-CD) [%] | Reduction rate of specific enzyme activity in existence of α-CD ([2]; inhibitor α-CD) [%] | Reduction rate of specific enzyme activity in existence of β-CD ([2]; inhibitor β-CD) [%] | Reduction rate of specific enzyme activity in existence of γ-CD ([2]; inhibitor γ-CD) [%]
Geobacillus stearothermophilus Wild enzyme: wild pullulanase of Geobacillus stearothermophilus (KZE96788.1, SEQ ID NO: 20) (protein, bacterial) MLHISRTFAAYLDEIDQITVIVPKARCLDNMEPFVMTAPSGEDIPLVVQQKEDLGDAVKYVCRFSVPFQIGETHWIRARSGEESDVQIGAVVRTAAFDDQFFYDGKLGVEYAKEQTIFRVWAPTATAVSVKLVHPDHGDVRYVPLVRGERGVWSVAVSGDWERARYMYVACINRVWREAVDPYATAVSVNGEHGVIVDWEKTKLAKPAPPLPPCPSPTDAVIYELSIRDFTSHPDSGAVWKGKYLGLTEEHTRGPNGTVTGLSYLKELGVTHVQLMPFADFAGVDERDPQAAYNWGYNPLHLYAPEGSYATDPHDPYARIVELKQAIRALQENGLRVVMDAVYNHVYDREQSPLENLVPGYYFRYDAYGRPANGTGVGNDIASERRMARRWIVDSVVFWAKEYGINGFRFDLMGVHDIETMKSVRDALDAIDPSILVYGEGWDLPTPLAPEQKATMANAKRLPRLAYFNDRFRDAVKGSTFYLPDRGFALGDSAGREQVKTAIAGSLQAFGGLFCHPLQSINYVECHDNHTFWDKMEAANGHEPEWLRRKRQKLATAIVLLAQGIPFLHSGQEFYRTKGGDENSYRSPDAVNRLDWERKSRYEDDVRYIQGLIAIRRAHGAFRLATEVDVQRHLTFLEPIPPSVIAYWLRDVALYGLWTDIVVIHHNEETGVVIALPDDGEWHVVCDGERSGTVPLRQVRRFLDADGIGTWVLVKTGAAADVENGK | 16.9 | 51.2 | 7.7 | – | – | –
Bacillus halotolerans Wild enzyme: wild pullulanase of Bacillus halotolerans (WP_106020274.1, SEQ ID NO: 26) (protein, bacterial) MVCIQRSFEAYADEMNIITVLIPADQKDTFTPPFQLETDTAEIPLTVSQEWQIEGKYKYVCVAEQPVAFGKTHHVKASGGGKTDLQIGAVVRTDAFDAAFYYDGELGAVYASDYTEFKVWAPAATSAAVKLSHPEKSGYTLQMTRMENGVYAVTVAGDLHGYEYVYRICNNLEWTETVDPYAKAVTVNGEKGVVLRPDQANSAPSFTPFSAPVDAIIYEMHIRDFSIHENSGTKNKGKYAALAETDTKTKNGSSTGLSYLKELGVTHIELLPLNDYAGVDEENPLAAYNWGYNPLHFFAPEGSYSSNPHDPQTRNTEVKQMIHTLHQHGLRVILDVVYNHVYQREHSPFEKTVPGYFFRHDQFGMPSNGTGVGNDIASERRMARKFITDCVMYWLKEYDVDGFRFDLLGILDIETVLHMKEKASEVKSGILLFGEGWDLATPLPPEQKATLANASKMPGVGFFNDSFRDAVKGNTFHIAAAGFALGNGEKTETVMHGIAGSSGWKETAPLVSAPSQSINYVESHDNHTFWDKMSLALPQESESRKRSRQKLASAIILLAQGVPFIHSGQEFFRTKQGVENSYQSSDSINQLDWSRRETFKQDVDYVRRLISLRKAHPAFRLTSSADIQRCLECLALKEHLIVYRLFNLGAIDEWEEIIVIHHASPDSVTWQLPKDKAYRLLCDTDGFRADHGEIKKAVAVNGIGTVILYLARDLTSFA | – | – | – | 17.2 | 35.9 | 6.7
